US20140193401A1 (published 2014)
Positions count from the first letter of the chain named.

What was measured:
Experiment in all cases: SPR (BIAcore 3000), mAb 1B7 immobilised on CM5 chip, toxin injected
PTx-S1-220 E155A = target: T1, PTx-S1-220 E155A (Bordetella pertussis, UniProt P04977 35-254)
T1 chain: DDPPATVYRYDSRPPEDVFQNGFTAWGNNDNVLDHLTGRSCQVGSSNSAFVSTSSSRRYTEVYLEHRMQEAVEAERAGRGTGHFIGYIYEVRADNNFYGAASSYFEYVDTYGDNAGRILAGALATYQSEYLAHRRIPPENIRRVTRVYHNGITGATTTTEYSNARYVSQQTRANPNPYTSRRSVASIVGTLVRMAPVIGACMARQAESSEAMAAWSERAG

PTx-S1-220 R79A = target: T2, PTx-S1-220 R79A (Bordetella pertussis, UniProt P04977 35-254)
T2 chain: T1 chain with R79A, A155E

PTx-S1-220 H83A = target: T3, PTx-S1-220 H83A (Bordetella pertussis, UniProt P04977 35-254)
T3 chain: T1 chain with H83A, A155E

PTx-S1-220 Y166A = target: T4, PTx-S1-220 Y166A (Bordetella pertussis, UniProt P04977 35-254)
T4 chain: T1 chain with A155E, Y166A

PTx-S1-220 N150A = target: T5, PTx-S1-220 N150A (Bordetella pertussis, UniProt P04977 35-254)
T5 chain: T1 chain with N150A, A155E

PTx-S1-220 T81A = target: T6, PTx-S1-220 T81A (Bordetella pertussis, UniProt P04977 35-254)
T6 chain: T1 chain with T81A, A155E

PTx-S1-220 E16A = target: T7, PTx-S1-220 E16A (Bordetella pertussis, UniProt P04977 35-254)
T7 chain: T1 chain with E16A, A155E

PTx-S1-220 T156A = target: T8, PTx-S1-220 T156A (Bordetella pertussis, UniProt P04977 35-254)
T8 chain: T1 chain with A155E, T156A

PTx-S1-220 T159A = target: T9, PTx-S1-220 T159A (Bordetella pertussis, UniProt P04977 35-254)
T9 chain: T1 chain with A155E, T159A

B1: murine monoclonal antibody 1B7 (antibody, V domains shown)
VH: EVQLQQSGSELVRPGASVKLSCKASGYKFTSYWMHWVKQRPGQGLEWIGNIFPGSGSTNYDEKFNSKATLTVDTSSNTAYMQLSSLTSEDSAVYYCTRWLSGAYFDYWGQGTTLTVSS
VL: DIQMTQSPALMSASPGEKVTMTCSASSSVSFMYWYQQKPRSSPKPWIYLTSNLPSGVPARFSGSGSGTSYSLTISSMEAEDAATYYCQQWSSHPPTFGSGTKLEIKR
notes: also called mAb 1B7; 1B7 mAb
For B1, the koff (PTx-S1-220 E155A) was 0.0011 s⁻¹, the koff (PTx-S1-220 R79A) was 0.025 s⁻¹ and the koff (PTx-S1-220 H83A) was 0.01 s⁻¹. It also gave a koff (PTx-S1-220 Y166A) of 0.0014 s⁻¹, a koff (PTx-S1-220 N150A) of 0.008 s⁻¹ and a koff (PTx-S1-220 T81A) of 0.0017 s⁻¹. For the same binder, the koff (PTx-S1-220 E16A) was 0.0016 s⁻¹, the koff (PTx-S1-220 T156A) was 0.0011 s⁻¹ and the koff (PTx-S1-220 T159A) was 0.0014 s⁻¹.
